This passage reports % cells in the Anti-mouse-IgG-Fc-FITC positive gate results from patent publication US20250034271A1.

Test [1] deals with mouse CD40 (mCD40) on transfected CHO cells (mouse) (UniProt P27512). Briefly: flow cytometry, CHO-mCD40 cells, negative control, anti-mIgG Fc-FITC; x: Anti-mouse-IgG-Fc-FITC, y: SSC-H. (In general: In flow cytometry, cells or beads pass a laser one at a time.)
Test [2] addresses monkey (rhesus macaque) CD40 (rmCD40) on transfected CHO cells (rhesus macaque). As to the kind of experiment: flow cytometry, CHO-rmCD40 cells, negative control, anti-mIgG Fc-FITC; x: Anti-mouse-IgG-Fc-FITC, y: SSC-H.
Test [3] deals with chimeric (mouse and human) CD40 (chiCD40) on transfected CHO cells (chimeric (mouse and human)). As to the kind of experiment: flow cytometry, CHO-chiCD40 cells, negative control, anti-mIgG Fc-FITC; x: Anti-mouse-IgG-Fc-FITC, y: SSC-H.
chimeric (mouse and human) CD40 (chiCD40) on transfected CHO cells (chimeric (mouse and human)), sequence (chain, as listed by the source mutant limits assumed): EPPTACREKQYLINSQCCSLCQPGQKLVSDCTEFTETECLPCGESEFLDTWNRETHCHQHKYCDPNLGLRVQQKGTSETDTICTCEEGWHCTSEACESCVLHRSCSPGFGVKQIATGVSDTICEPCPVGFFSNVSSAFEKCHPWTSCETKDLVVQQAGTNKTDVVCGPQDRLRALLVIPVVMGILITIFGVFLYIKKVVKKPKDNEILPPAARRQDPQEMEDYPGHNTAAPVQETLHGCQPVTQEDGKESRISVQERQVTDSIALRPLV

monkey (rhesus macaque) CD40 (rmCD40) on transfected CHO cells (rhesus macaque), sequence (P25942 other isoform, or with tags, fused parts or gaps limits assumed): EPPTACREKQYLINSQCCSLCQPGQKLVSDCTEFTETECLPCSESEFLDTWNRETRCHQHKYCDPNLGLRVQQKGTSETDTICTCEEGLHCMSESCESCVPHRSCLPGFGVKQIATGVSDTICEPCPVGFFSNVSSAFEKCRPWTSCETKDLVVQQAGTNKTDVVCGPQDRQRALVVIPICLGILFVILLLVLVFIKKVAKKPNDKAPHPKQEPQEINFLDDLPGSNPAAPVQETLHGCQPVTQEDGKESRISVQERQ
mouse CD40 (mCD40) on transfected CHO cells (mouse), sequence (P27512 20-289 limits assumed): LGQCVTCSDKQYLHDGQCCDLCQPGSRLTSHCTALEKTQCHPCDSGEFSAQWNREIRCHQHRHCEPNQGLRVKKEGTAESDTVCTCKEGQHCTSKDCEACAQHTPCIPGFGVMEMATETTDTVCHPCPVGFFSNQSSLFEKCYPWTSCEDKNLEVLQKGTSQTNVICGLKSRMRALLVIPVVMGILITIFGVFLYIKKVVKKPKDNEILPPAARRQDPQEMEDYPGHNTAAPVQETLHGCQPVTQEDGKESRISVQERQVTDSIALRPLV

Take NC: the % cells in the Anti-mouse-IgG-Fc-FITC positive gate worked out at 1.01% in test [1], 1.19% in test [2] and 1.19% in test [3].
